Entries after “also recorded” stand apart in the source; their conditions may differ.
System: HEK293T/16 cells
Experiment: Secreted alkaline phosphatase (SEAP)-based surrogate killing assay of iCasp9 mutants
Type: cell-based, human
Details: SEAP assay without AP1903
Experimental: Early passage HEK293T/16 cells (ATCC, Manassas, Va.) were maintained in IMDM, GlutaMAX™ (Life Technologies, Carlsbad, Calif.) supplemented with 10% FBS, 100 U/mL penicillin, and 100 […] until transfection in a humidified, 37° C., 5% CO2/95% air atmosphere. Cells in logarithmic-phase growth were transiently transfected with 800 ng to 2 μg of expression plasmid encoding iCasp9 mutants and 500 ng of an expression plasmid encoding SRα promoter driven SEAP per million cells in 15-mL conical tubes. […] GeneJammer® Transfection Reagent at a ratio of 3 μl per ug of plasmid DNA was used to transiently transfect HEK293T/16 cells in the absence of antibiotics. 100 μl or 2 mL of the transfection mixture was added to each well in 96-well or 6-well plate, respectively.
Briefly, after 65° C. heat denaturation for 45 minutes to reduce background caused by endogenous (and serum-derived) alkaline phosphatases that are sensitive to heat, 5 μl of supernatants was added to 95 μl of PBS and added to 100 μl of substrate buffer, containing 1 μl of 100 mM 4-methylumbelliferyl phosphate (4-MUP; Sigma, St. Louis, Mo.) re-suspended in 2 M diethanolamine. Hydrolysis of 4-MUP by SEAP produces a fluorescent […] with excitation/emission (355/460 nm), which can be easily measured. Assays were performed in black opaque 96-well plates to minimize fluorescence leakage between wells. […] of the mixture was seeded onto each well of a 96-well plate. […] For the assay, 4-methylumbelliferyl phosphate substrate was hydrolyzed by SEAP to 4-methylumbelliferon, a metabolite that can be excited with 364 nm and detected with an emission filter of 448 nm. Since SEAP is used as a marker for cell viability, reduced SEAP reading corresponds with increased iCaspase-9 activities.

Row | Molecule | Basal Activity (relative to wild type/unmodified Caspase-9)
1 | ^316ATPF^319AVPI: modified iCasp9, ATPF replaced by SMAC/Diablo AVPI (protein, UniProt P55211 1-416, looked up, variant T317V F319I, FKBP12-F36V fusion (iCasp9), CARD deleted) MDEADRRLLRRCRLRLVEELQVDQLWDALLSRELFRPHMIEDIQRAGSGSRRDQARQLIIDLETRGSQALPLFISCLEDTGQDMLASFLRTNRQAAKLSKPTLENLTPVVLRPEIRKPEVLRPETPRPVDIGSGGFGDVGALESLRGNADLAYILSMEPCGHCLIINNVNFCRESGLRTRTGSNIDCEKLRRRFSSLHFMVEVKGDLTAKKMVLALLELAQQDHGALDCCVVVILSHGCQASHLQFPGAVYGTDGCPVSVEKIVNIFNGTSCPSLGGKPKLFFIQACGGEQKDHGFEVASTSPEDESPGSNPEPDAVPIQEGLRTFDQLDAISSLPTPSDIFVSYSTFPGFVSWRDPKSGSWYVETLDDIFEQWAHSEDLQSLLLRVANAVSVKGIYKQMPGCFNFLRKKLFFKTS | no effect
2 | F319A: modified iCasp9, F319A (protein, UniProt P55211 1-416, looked up, variant F319A, FKBP12-F36V fusion (iCasp9), CARD deleted) MDEADRRLLRRCRLRLVEELQVDQLWDALLSRELFRPHMIEDIQRAGSGSRRDQARQLIIDLETRGSQALPLFISCLEDTGQDMLASFLRTNRQAAKLSKPTLENLTPVVLRPEIRKPEVLRPETPRPVDIGSGGFGDVGALESLRGNADLAYILSMEPCGHCLIINNVNFCRESGLRTRTGSNIDCEKLRRRFSSLHFMVEVKGDLTAKKMVLALLELAQQDHGALDCCVVVILSHGCQASHLQFPGAVYGTDGCPVSVEKIVNIFNGTSCPSLGGKPKLFFIQACGGEQKDHGFEVASTSPEDESPGSNPEPDATPAQEGLRTFDQLDAISSLPTPSDIFVSYSTFPGFVSWRDPKSGSWYVETLDDIFEQWAHSEDLQSLLLRVANAVSVKGIYKQMPGCFNFLRKKLFFKTS | no effect
3 | L329G: modified iCasp9, L329G (protein) VDGFGDVGALESLRGNADLAYILSMEPCGHCLIINNVNFCRESGLRTRTGSNIDCEKLRRRFSSLHFMVEVKGDLTAKKMVLALLELARQDHGALDCCVVVILSHGCQASHLQFPGAVYGTDGCPVSVEKIVNIFNGTSCPSLGGKPKLFFIQACGGEQKDHGFEVASTSPEDESPGSNPEPDATPFQEGLRTFDQGDAISSLPTPSDIFVSYSTFPGFVSWRDPKSGSWYVETLDDIFEQWAHSEDLQSLLLRVANAVSVKGIYKQMPGCFNFLRKKLFFKTSASRA | did not lower basal activity; also recorded: Increased
4 | T317A: modified iCasp9, T317A (protein) VDGFGDVGALESLRGNADLAYILSMEPCGHCLIINNVNFCRESGLRTRTGSNIDCEKLRRRFSSLHFMVEVKGDLTAKKMVLALLELARQDHGALDCCVVVILSHGCQASHLQFPGAVYGTDGCPVSVEKIVNIFNGTSCPSLGGKPKLFFIQACGGEQKDHGFEVASTSPEDESPGSNPEPDAAPFQEGLRTFDQLDAISSLPTPSDIFVSYSTFPGFVSWRDPKSGSWYVETLDDIFEQWAHSEDLQSLLLRVANAVSVKGIYKQMPGCFNFLRKKLFFKTSASRA | lower basal activity; also recorded: reduce basal activity; also recorded: Decreased
5 | D330S: modified iCasp9, D330S (protein) VDGFGDVGALESLRGNADLAYILSMEPCGHCLIINNVNFCRESGLRTRTGSNIDCEKLRRRFSSLHFMVEVKGDLTAKKMVLALLELARQDHGALDCCVVVILSHGCQASHLQFPGAVYGTDGCPVSVEKIVNIFNGTSCPSLGGKPKLFFIQACGGEQKDHGFEVASTSPEDESPGSNPEPDATPFQEGLRTFDQLSAISSLPTPSDIFVSYSTFPGFVSWRDPKSGSWYVETLDDIFEQWAHSEDLQSLLLRVANAVSVKGIYKQMPGCFNFLRKKLFFKTSASRA | less basal activity than wild type Caspase-9; also recorded: Decreased
6 | D330N: modified iCasp9, D330N (protein) VDGFGDVGALESLRGNADLAYILSMEPCGHCLIINNVNFCRESGLRTRTGSNIDCEKLRRRFSSLHFMVEVKGDLTAKKMVLALLELARQDHGALDCCVVVILSHGCQASHLQFPGAVYGTDGCPVSVEKIVNIFNGTSCPSLGGKPKLFFIQACGGEQKDHGFEVASTSPEDESPGSNPEPDATPFQEGLRTFDQLNAISSLPTPSDIFVSYSTFPGFVSWRDPKSGSWYVETLDDIFEQWAHSEDLQSLLLRVANAVSVKGIYKQMPGCFNFLRKKLFFKTSASRA | less basal activity than wild type Caspase-9; also recorded: Decreased
7 | D330G: modified iCasp9, D330G (protein) VDGFGDVGALESLRGNADLAYILSMEPCGHCLIINNVNFCRESGLRTRTGSNIDCEKLRRRFSSLHFMVEVKGDLTAKKMVLALLELARQDHGALDCCVVVILSHGCQASHLQFPGAVYGTDGCPVSVEKIVNIFNGTSCPSLGGKPKLFFIQACGGEQKDHGFEVASTSPEDESPGSNPEPDATPFQEGLRTFDQLGAISSLPTPSDIFVSYSTFPGFVSWRDPKSGSWYVETLDDIFEQWAHSEDLQSLLLRVANAVSVKGIYKQMPGCFNFLRKKLFFKTSASRA | less basal activity than wild type Caspase-9; also recorded: Decreased
8 | A316G: modified iCasp9, A316G (protein) VDGFGDVGALESLRGNADLAYILSMEPCGHCLIINNVNFCRESGLRTRTGSNIDCEKLRRRFSSLHFMVEVKGDLTAKKMVLALLELARQDHGALDCCVVVILSHGCQASHLQFPGAVYGTDGCPVSVEKIVNIFNGTSCPSLGGKPKLFFIQACGGEQKDHGFEVASTSPEDESPGSNPEPDGTPFQEGLRTFDQLDAISSLPTPSDIFVSYSTFPGFVSWRDPKSGSWYVETLDDIFEQWAHSEDLQSLLLRVANAVSVKGIYKQMPGCFNFLRKKLFFKTSASRA | lower basal activity; also recorded: Decreased
9 | T317C: modified iCasp9, T317C (protein) VDGFGDVGALESLRGNADLAYILSMEPCGHCLIINNVNFCRESGLRTRTGSNIDCEKLRRRFSSLHFMVEVKGDLTAKKMVLALLELARQDHGALDCCVVVILSHGCQASHLQFPGAVYGTDGCPVSVEKIVNIFNGTSCPSLGGKPKLFFIQACGGEQKDHGFEVASTSPEDESPGSNPEPDACPFQEGLRTFDQLDAISSLPTPSDIFVSYSTFPGFVSWRDPKSGSWYVETLDDIFEQWAHSEDLQSLLLRVANAVSVKGIYKQMPGCFNFLRKKLFFKTSASRA | no effect
10 | D330V: modified iCasp9, D330V (protein) VDGFGDVGALESLRGNADLAYILSMEPCGHCLIINNVNFCRESGLRTRTGSNIDCEKLRRRFSSLHFMVEVKGDLTAKKMVLALLELARQDHGALDCCVVVILSHGCQASHLQFPGAVYGTDGCPVSVEKIVNIFNGTSCPSLGGKPKLFFIQACGGEQKDHGFEVASTSPEDESPGSNPEPDATPFQEGLRTFDQLVAISSLPTPSDIFVSYSTFPGFVSWRDPKSGSWYVETLDDIFEQWAHSEDLQSLLLRVANAVSVKGIYKQMPGCFNFLRKKLFFKTSASRA | less basal activity than wild type Caspase-9; also recorded: Decreased
11 | A331K: modified iCasp9, A331K (protein) VDGFGDVGALESLRGNADLAYILSMEPCGHCLIINNVNFCRESGLRTRTGSNIDCEKLRRRFSSLHFMVEVKGDLTAKKMVLALLELARQDHGALDCCVVVILSHGCQASHLQFPGAVYGTDGCPVSVEKIVNIFNGTSCPSLGGKPKLFFIQACGGEQKDHGFEVASTSPEDESPGSNPEPDATPFQEGLRTFDQLDKISSLPTPSDIFVSYSTFPGFVSWRDPKSGSWYVETLDDIFEQWAHSEDLQSLLLRVANAVSVKGIYKQMPGCFNFLRKKLFFKTSASRA | did not lower basal activity; also recorded: Increased
12 | D330E: modified iCasp9, D330E (protein) VDGFGDVGALESLRGNADLAYILSMEPCGHCLIINNVNFCRESGLRTRTGSNIDCEKLRRRFSSLHFMVEVKGDLTAKKMVLALLELARQDHGALDCCVVVILSHGCQASHLQFPGAVYGTDGCPVSVEKIVNIFNGTSCPSLGGKPKLFFIQACGGEQKDHGFEVASTSPEDESPGSNPEPDATPFQEGLRTFDQLEAISSLPTPSDIFVSYSTFPGFVSWRDPKSGSWYVETLDDIFEQWAHSEDLQSLLLRVANAVSVKGIYKQMPGCFNFLRKKLFFKTSASRA | less basal activity than wild type Caspase-9; also recorded: Decreased
